Assay results from patent US8658382B2, “Proteins with pteridine glycosyltransferase activity and analysis method using the same” (Inje University Industry-Academic Cooperation Foundation, priority 2008, dated 2014).
Entries after “also recorded” stand apart in the source; their conditions may differ.

B1: CY-7: recombinant pteridine glycosyltransferase from Spirulina platensis CY-7, amino acid SEQ ID NO 2 (protein)
chain: MTPTSWKLLFISTPVGPLGSGLGGGVELTLLNMAKALKSRGHDITVVAPSGSVLESLSIIEIPGELQPIAQNQDRDSLITIPENSVLGNMWEYGRQVQTNYHAIVNFAFDWLPFYLTPFFDTPIAHCVSMASLISALDQIVGQVMKQFPGTVGFHSHTQAATFGSDLDYACLGSGLEMERYQFCEQPHQQLAWMGRISPEKGLEDAIAAADKTGIPLEIFGKIQDDQYWQNILNTYPNAPLNYRGFLNTDELQQGLRQCRGLLMTHRWVEAFGNVAIEALACGVPVISYRRGGPAEIVRDGETGWLVEPDSVTGLVDAIAKFEQIDRRQCRAVAEKEYSLAALGDRLEKWLSDVTRLKN
modifications: Spirulina platensis CY-7
B2: BGluT: recombinant protein from a Synechococcus gene with pteridine glucosyltransferase activity (UDP-glucose:tetrahydrobiopterin glucosyltransferase) (protein)
chain: MTAHRFLFVSTPVGPLGSGRGGGVELTLPNLAKALTQRGHQVSVLAPAGSVLPDLPLETVPGTWQSTAQSHGRATPAEIPAESVLARLWDRAHQQQADFDLILNFAYDWLPLYLTPFFKTPVAHLISMGSLSEVMDQAIATSLDRYPGSIAVHSLAQAATFPFGDRCLCIGNALDLAAYGFNPEPEPVLGWVGRIAPEKGLEDAIQAAQQAGLPLRVWGALTEPDYWQRLQQQFGDRAVSYQGFVSTDELQRGLGRCQGLLMTPKWVEAFGNVAIEALACGLPVIAYARGGPLEIIEQGKSGWLVEPDQQAALVNAIGQLSSLDRAYCRAQAEARFSLAAMGQRLEAWLLPLLSRARGF
modifications: Synechococcus PCC7942
B3: CY-49: recombinant pteridine glycosyltransferase from Spirulina maxima CY-49, amino acid SEQ ID NO 3, transfers xylose (protein)
chain: MPQKSWKLLFISTPVGPLGSGLGGGVELTLLNMAKALHSRGHDITVVAPSGSVLESLSVIEISGKLQPIAQNQDRDSLITIPENSVLGNMWEYGRQVQTNYHAIVNFAFDWLPFYLTPFFPTPIAHWVSMGSLISALDQIVVEVMKQFPGTVGFYSHTQAATFGSDLGYACLGSGLEMDRYQFCDQPHQQLAWMGRISPEKGLEDAIAAADKTGIPLAIFGKIQDEQYWQNILNTYPNAPLNYRGFLNTDELQQGLRECRGLLMTHRWVEAFGNVAIEALACGVPVISYRRGGPAEIVRDGETGWLVEPDSVTGLVDAIAKLEQIDRRQCRALAEKEYSLVALGDRLETWLSDVIALKN
modifications: Spirulina maxima CY-49

Assays:
[1] = Analysis of protein activity of the recombinant proteins with UDP-glycosides; type: biochemical; conditions: for pteridine glycosyltransferase activity (sugar bound to tetrahydrobiopterin): 1 μM tetrahydrobiopterin, 500 μM UDP-glycoside, HPLC, FIG. 10
Experimental: The protein activity was assayed in 100 μl of reaction mixture having the following composition: 50 mM Tris-HCl (pH 7.5), 10 mM MgCl2, 0.2% ascorbic acid, 1 μM tetrahydrobiopterin, 500 μM UDP-glycoside (one of UDP-glucose, UDP-galactose, UDP-xylose, UDP-glucuronic acid, UDP-galacturonic acid, UDP-N-acetylglucosamine, and UDP-N-acetylgalactosamine) and an appropriate amount of the purified recombinant protein. The reaction was performed at 37 for 10-60 minutes depending on an amount of protein. 30 μl of acidic iodine solution (2%/1% KI/I2 in 1 M HCl) was added to the reaction mixture and allowed in darkness for 1 hour for oxidation thereof. The mixture was centrifuged to recover the supernatant, which was then mixed with 10 μl of 5% ascorbic acid. 30 μl of 1N NaOH was added to the resulting mixture for neutralization and then HPLC analysis was carried out.
HPLC system consisted of Gilson 321 pump, Gilson 234 autoinjector, a fluorescence detector (Schimadzu RF-10AXL), and a system software (Gilson Unipoint version 5.11). Chromatography was performed on a guard column (10 μm, 4.3 mm×1 cm) and an Inertsil ODS-3 (5 μm, 150×2.3 mm, GL Science, Japan) equilibrated with 10 mM potassium phosphate buffer (pH 6.0) at room temperature. Pteridines were eluted isocratically at a flow rate of 1.2 ml/min and monitored at 350/450 nm (excitation/emission). Pteridine peaks were identified and quantified by using authentic pteridines, which were purchased from Dr. B. Schirck's Lab (Jona, Switzerland). Biopterin-glucoside was isolated from Synechococcus sp. PCC 7942 (Y. K. Choi, Y. K. Hwang, Y. H. Kang, Y. S. Park, Chemical structure of 1-O-(L-erythro-biopterin-2′-yl)-alpha-glucose isolated from a cyanobacterium Synechococcus sp. PCC 7942, Pteridines, 12 (2001) 121-125).

[2] = Pteridine glycosyltransferase activity with human urine; type: biochemical; conditions: 1 μg protein, 10 μl human urine in 100 μl, FIG. 12
Experimental: Also, 1 μg of each protein was added to 100 μl of reaction solution containing 10 μl of human urine instead of tetrahydrobiopterin. The reaction mixture was incubated at for 20 minutes. For CY-49, 500 μM UDP-xylose was added as a substrate; and for other enzymes, UDP-glucose was added. Other reaction conditions were the same as in the above.

[3] = Characterization of enzyme activity by amount of protein, compared with BGluT; type: biochemical; conditions: production of tetrahydrobiopterin-glycoside by amount of protein (0.05-1.0 μg), FIG. 11
Experimental: The enzymatic activities for the isolated proteins were compared with that of BGluT. First, production profiles of tetrahydrobiopterin(BH4)-glucoside produced according to amounts of the proteins was compared with that of BGluT. The enzyme activities were represented as a percentage to all converted amounts. The reaction condition was as follows. That is, reactions were performed in a final volume of 100 μl, which consisted of 50 mM Tris-HCl (pH 7.5), 10 mM MgCl2, 0.05% ascorbic acid, 1 μM tetrahydrobiopterin, 500 μM UDP-glucose or UDP-xylose, and a protein (0.05-1.0 μg). The reaction mixture was incubated at 37 for 20 minutes. 30 μl of acidic iodine solution (2%/1% KI/I2 in 1 M HCl) was added thereto in darkness for 1 hour at room temperature, so as to oxidize the reaction mixture. After centrifugation, the resulting supernatant was mixed with 10 μl of 5% ascorbic acid and neutralized with 30 μl of 1N NaOH for injection to HPLC.

[4] = Storage stability of purified recombinant BGluT; type: physicochemical; conditions: in 20 mM Tris-HCl (pH 7.5), 30% (v/v) glycerol, aliquots at −70° C.
Excerpt: According to the present inventor's article (Y. K. Choi, Y. K. Hwang, Y. S. Park, Molecular cloning and disruption of a novel gene encoding UDP-glucose:tetrahydrobiopterin alpha-glucosyltransferase gene in Synechococcus sp. PCC 7942. FEBS Lett. 502 (2001) 73-78), the BGluT gene cloned in pET-28a was overexpressed in Escherichia coli strain BL21(DE3). The recombinant BGluT was homogeneously purified with Ni-NTA column (Qiagen). Briefly, the transformed E. coli was induced to overexpress the protein with 0.3 mM isopropyl thiogalactoside (IPTG). After being incubated at 37° C. for 3 hours, the harvested cells were washed with lysis buffer (50 mM sodium phosphate (pH 8.0), 300 mM NaCl, 10 mM imidazole), resuspended in the same buffer, and disrupted by sonication. The crude extract obtained after centrifugation was applied to a column of Ni-NTA gel (Qiagen) and purified according to the product manual. The recombinant BGluT protein was eluted with 250 mM imidazole in the lysis buffer. The purified protein was dialyzed against 20 mM Tris-HCl (pH 7.5), mixed with glycerol to a concentration of 30% (v/v), and stored in aliquots at −70° C. until use. The protein was stable up to 4 months. Protein concentration was determined using Bradford reagent.

[5] = BGluT-catalysed glucosylation of tetrahydrobiopterin (establishing reaction conditions); type: biochemical
Experimental: Unless otherwise specified, the following standard reaction conditions were used for the determination of tetrahydrobiopterin and its oxidized forms. Reactions were carried out in a final volume of 100 μl, which consisted of 50 mM Tris-HCl (pH 7.5), 10 mM MgCl2, 0.05% ascorbic acid, 500 μM UDP-glucose, 1 μg of BGluT, and an aliquot of pteridines or tissue extracts. The reaction mixture was incubated for 20 minutes at 37° C. and then mixed with 30 μl of acidic iodine solution (2% KIM % I2 in 1 N HCl). After 1 hour in the dark at room temperature, the oxidized mixture was centrifuged. […]
The HPLC system consisted of Gilson 321 pump, Gilson 234 autoinjector, a fluorescence detector (Schimadzu RF-10AXL), and a system software (Gilson Unipoint version 5.11). […] Pteridines were eluted isocratically at a flow rate of 1.2 ml/min and monitored at 350/450 nm (excitation/emission). Pteridine peaks were identified and quantified using authentic pteridines, which were purchased from Dr. B. Schirck's Lab (Jona, Switzerland). […]
The results of FIG. 1 illustrate that a selective and quantitative analysis of tetrahydrobiopterin is possible using BGluT. In order to validate the possibility quantitatively, various studies were carried out to establish a standard reaction condition suitable for analysis of biological samples. […]

| Molecule | Substrate for glucosylation [1] | pteridine glycosyltransferase activity (sugar bound to tetrahydrobiopterin) [1] | HPLC chromatogram of the reaction mixture with human urine [2] | activity compared with BGluT [3] | time the protein was stable [4] | amount of BGluT above which the product is not increased any more ([5]; 100 μl reaction mixture, 1 μM tetrahydrobiopterin, 10 minutes, FIG. 2) | conversion of tetrahydrobiopterin to its glucosylated product ([5]; even in the presence of dihydrobiopterin, FIG. 1) |
| --- | --- | --- | --- | --- | --- | --- | --- |
| B1 | Glucose | an activity for binding glucose to tetrahydrobiopterin | very similar to that of BGluT | higher activities than BGluT; also recorded: more excellent activity than BGluT | – | – | – |
| B2 | – | – | – | – | up to 4 months | more than 1 μg | specifically convert only all of tetrahydrobiopterin to its glucosylated product |
| B3 | Xylose | an activity for binding xylose to tetrahydrobiopterin | showed the peak of biopterin-xylose, instead of biopterin-glucose | higher activities than BGluT | – | – | – |
